# Reference: the DeepSol protein solubility set
# Assay: soluble on expression in E. coli; label from the status in PepcDB or PDB records
row,Sequence,soluble on expression in E. coli
1,MGSDKIHHHHHHMAQQTPLYEQHTLCGARMVDFHGWMMPLHYGSQIDEHHAVRTDAGMFDVSHMTIVDLRGSRTREFLRYLLANDVAKLTKSGKALYSGMLNASGGVIDDLIVYYFTEDFFRLVVNSATREKDLSWITQHAEPFGIEITVRDDLSMIAVQGPNAQAKAATLFNDAQRQAVEGMKPFFGVQAGDLFIATTGYTGEAGYEIALPNEKAADFWRALVEAGVKPCGLGARDTLRLEAGMNLYGQEMDETISPLAANMGWTIAWEPADRDFIGREALEVQREHGTEKLVGLVMTEKGVLRNELPVRFTDAQGNQHEGIITSGTFSPTLGYSIALARVPEGIGETAIVQIRNREMPVKVTKPVFVRNGKAVA,not soluble
2,GMKIEHVALWTTNLEQMKQFYVTYFGATANDLYENKTKGFNSYFLSFEDGARLEIMSRTDVTGKTTGENLGWAHIAISTGTKEAVDELTEKLRQDGFAIAGEPRMTGDGYYESVVLDPEGNRIEITW,soluble
3,MGSSHHHHHHSQDPDPMQSFADAKEFFQYSAGQWQSRRVTHHLPFRRAESGGSNIQVETLEKDDPRIIEICQMHDMDASLSVGGSYVTWAGTMQWDKDDENHEGSTVFALIPDADNPRQGKLLRERGYAEIVPVAGEYHLDHEDGLVLTTEYETMTIYERFWFANPDLRLRTSTVKRFGGFNTTTFCMEERIQTSPVTATAAAETNPLYAISGW,soluble
4,MLSRLSSIFRYFGTTSTIATMSPKKVTIIGSGNWGSAIARIVGSTTKSFPDEFDPTVRMWVFEEIVNGEKLSEVINNRHENIKYLPGKVLPNNVVAVTDLVESCEGSNVLVFVVPHQFVKGICEKLVGKIPADTQAISLIKGVSTEKRGGLKLISEEIKEILKIEVSVLMGANLAPEVANDNFCEATIGCKRKAEDGPLLKKLFHTDNFRINVVEDAHTVELCGALKNVVACAAGFTDGLGYGDNTKAAVIRLGLMETTKFVEHYYPGSNLQTFFESCGIADLITTCYGGRNRKVCEAFVKTGKSMAEVEKELLNGQSAQGPLTAEEVYLMMHKTGLDAKFPLFTAVHKICAGEMKPAELVDCLRNHPEHM,not soluble
5,MAAGQNGHEEWVGSAYLFVESSLDKVVLSDAYAHPQQKVAVYRALQAALAESGGSPDVLQMLKIHRSDPQLIVQLRFCGRQPCGRFLRAYREGALRAALQRSLAAALAQHSVPLQLELRAGAERLDALLADEERCLSCILAQQPDRLRDEELAELEDALRNLKCGSGARGGDGEVASAP,soluble
6,MSLKHSKIRIAHISDIHIGSRLDKLPQKMVNKIIEENPDLVVITGDLIDSHNVISTDLASFNAFKERNIPIYYTIGNHDIMAGEEYVSSILEYYGIIYLKNQVTQITIGDETIQLVGIDDVQSITKYNEIFNSITPSIHNNIYTILLHHRPQGYKTSVQSGQIDLQLAGHTHDGQVFPFNYIVPLFHSKSYGMYHIKDTSKELILYTHPGSCAWGPHFRTAAKNLITIFSIESSNEGHHHHHH,soluble
7,KKSSMRKELETIQLLWHQQKGQYQLSKETIELINHKCHDLKHQVQAIRAVKDEKERETYLEKIEKSVQIYSAIVRTGNEILDTILTEKSLICENSGIHINCVADGSLLAFMNPVDLYTLFGNALDNAIEAVRKLESKEKRVIDIMLYERQSFLMLQIVNPMCGEVKFEDGLPLTTKAKNGYHGYGMKSMLHTIQKYEGHLTTEVKNGCFYFNVMLPLERDSNKK,not soluble
8,AKFSAIITDKVGLHARPASVLAKEASKFSSNITIIANEKQGNLKSIMNVMAMAIKTGTEITIQADGNDADQAIQAIKQTMIDTALIQG,soluble
9,MGSDKIHHHHHHMSEIQLPSQFESFAEARKQGFIAVKNLKEQGKKVAGVFCTYAPVELVLAAGAVPVGLCAFSDETIPEAEKVLPRNLCPLVKSSYGFAITDKCPYMFFSDLMIGETTCDGKKKMYELLGEFKNLHVMQLPQTAAAEASQELWYQEVLRLKDRIEQDFGVTITEEGIKNAIKVKNEERKLLKEFYELSKSCPPPITGAEQLKVLYGSQFKFDPEAKNREIRETIDKVKADQAKGVENVSPAAKRILITGCPLAGVTEKVVRAIEESGGVVVAYENCIGVKPVERLVDETIDPYKALADRYLQIGCSVMTPNPNRLDLLSRLVREFKVDGVVEMTLQACHTYNLETTQIRKHMQKEDMPFISVETDYSTSDAAQLKTRLAAFIEMLS,not soluble
10,GMTMPIFNISDDVDLVPAMPAEGRDGGSYRRQIWQDDVENGTIVAVWMAEPGIYNYAGRDLEETFVVVEGEALYSQADADPVKIGPGSIVSIAKGVPSRLEILSSFRKLATVIPKP,soluble
11,MGSDKIHHHHHHMLEIVAFRGDEYGLSARILADFLDEFRIHEMSPDNFNGKEEIENDFIIVCNPKLLTENFLRQAYEYSRDRGIYFGVISALSIDLLREKLANYQEQISLDPQQYLIILRKENKSIKHRLNAEVFTRYESTVDNFDRVKHKKLCLSMVIDGNRRHLHLSDGKICGINRDIPLEEIYRYFPDCQNCEYERVYAQDVQAECIFMDSCSSTLISTSEKGEYINVGMNFLKNAKVLISSYRPKQGYNSEALLFHHLISHGFEAGEVLYILNTNSYNHCSDYLPYILYGFPNAKVTIPEKLEVDRLRMGKSEIVLEIDRIAGMRLLEIHAGEDILNEVLKRQFYVFSSDEIRKDVFYSVIPYPLKNSIKLFLYSWEEVNGPLRIVFGVGKRLREDVYSKRYFNMRKLELLGFRHKKIQNQVHDYFSKINEQTEVLDEANRNLKNFDLHRLSKNLSAVEERIYNLLADHLLSQNPKFFIEVYGENMTVRCAEEDLHKTIRCPYCGNYLSIKESENTLVPMKRYSGFCSNCHNVFDTESVHPPKYPEIVLVHEQPDRKIFYVKVWNENAHTTNNLVCFNLWCENRSEMENIYLSRDFQVFTLEPGGEEKFEVEVALKRTDQRINKTYCLYVYWFEDFNLSVSTYTFRLKNV,not soluble
12,SETPEVPVGSLIDFGPEAPTSSPLEAPPPVLQDGDGSLGDGASESETTESADSENDMGESPSHPSWDQDRRSSSNESFSSNQSTESTQDEETLALRDFMRGYVEKIFSGGEDLDQEEKAKFGEYCSSENGKGREWFARYVSAQRCNSKCVSEATFYRLVQSFAVVLFECHQMDDFGPAKNLMTMCFTYYHIGKPQLLPPESREKPAGSIDSYLKSANSWLAEKKDIAERLLKNTSARTENVKGFFGGLETKLKGPLARRNEEDENKPQEKRPRAVTAYSPEDEKKGEKIYLYTHLKQQPIW,soluble
13,MGSDKIHHHHHHMSNKQHSTTITLPRGTLDLTYQTNAASGNNDLKESSRYQLEDLLDFAQRINPKRAFLFVSKVLGRHIPVAPSTMRDAFTDLANLVPDDLPEPILVIGMAETAVGLSAGVHQALQTRYPQALLLNSTRHAQHDNDNTNNLLTTFSEDHSHASQHLIYQSADKVTQAQLLASKTLIMVDDEASTGNTCVNVVTALRNAGLMQLQQVHLTTLVDWSLNQNQTDAKADDTIASRLPNIDFYRHHLLSGAWKWTDAPNPEPIIMPSVDTTEAGSQALAHTGHWGRFPTLDSTDGFANYLASFQTTFAIFDGQTAFDNAQLPQKILVLGSNEFVWLPFLLAEWLEQNADTVIDNQVIKFSALTRSPIALGGGISTMLSFHDNYGLGMTNFAYNVDPSNWDLIVLCVETSADGVDAMWQDLDNVLIVSPK,not soluble
14,MSLYENNVKDTKDFYNDIGHISWSVAPSQHYHVGIFELEKDSMEDAQNRTVEYMARKVAASDLDVLLDIGCGSGLTAVQISKKENCKIVGINISEKQLAIGKKLISKEKINSRVKLMNMDAHQLNFKSGMFDGAYALESIMHMNREKVLSEVHRVLKNGAPFSLCDWYVKKSLTPVEKRFLETITLGKYITKEQYFSLYQTQNFMDIEIEEWSNKILPTYKYWTTITDEMKEKLPDHLLYVIEENSKVLSDIAIEKLGYLQVNGIKREGHHHHHH,soluble
15,MPDNEVDLLFAQLSPEDLIEWSDYLPESFTDRALAQMGERQRQRFELYDQYSENEIGRYTDHQMLVLSDKATVAQAQRFFRRIELDCNDNLFIVDEADKYLGTVRRYDIFKHEPHEPLISLLSEDSRALTANTTLLDAAEAIEHSREIELPVIDDAGELIGRVTLRAATALVREHYEAQLMATAGMDESDDLFAPILKGAQRRAV,soluble
16,MFPVSSIGNDISSDLVRRKMNDLPESPTGNNLEALAPGIEKLKQTSIEMVTLLNTLQPGGKCIITGDFQKELAYLQNVILYNVSSLRLDFLGYNAQIIQRSDNTCELTINEPLKNQEISTGNININCPLKDIYNEIRRLNVIFSCGTGDIVDLSSLDLRNVDLDYYDFTDKHMANTILNPFKLNSTNFTNANMFQVNFVSSTQNATISWDYLLKITPVLISISDMYSEEKIKFVESCLNEPGDITEEQLKIMRFAIIKSIPRATLTDKLENELTKEIYKSSSKIINCLNRIKLTEMKEFSSEKIYDYIDIIIEDYENTKENAYLVVPQINYTMDLNIEDSSSEELLSDNTLEKDENSPDNGFEVGEYNTYEAYNSEKQYFTREDYTYDYDLLNAI,not soluble
17,MSLDNINHILSKELGISLKQVTSVIEMLDEGNTVPFIARYRKERTGGLTDEVLRKFNERLTYLRNLESRKEDVLRIIEEQEKLTPELKLKIEKATTLTEIEDIYRPFKAKKRTRATMAVEKGLKPLAELILSGEFNGDIVEEANKYINEEKGVKNEEEALQGAMDIISEIISDNADYRKWIRNFVQKDGIIQVKGSSEEQTPYEMYYDYKEPVRTIPSHRILAINRGEKEKILSVKVTCNDDKIIDYLNKKVLKENKITDKYLEESIKDSFKRLIYPSIEREIRSELTSKGEEGAIDIFKANLKALLMQAPIKGKVVMGFDPGFRTGCKVAILDETGKFVENTTVYPTAPQNRIDETISTLKKLIKKHGVQVISLGNGTASRESEEVIAKMLKEIKDETGKELFYVIVSEAGASVYSASELANKEYPDLDVTVRGAISIGRRLQDPLAELVKIDPKAIGVGQYQHDVTQKKLDESLAGIVEDCVNNVGVDLNIATPSLLSYISGINASIAKNIVDYREENGKFKSRKELLKVKRLGQKAYEQCAGFLRVMESKEALDNTSVHPESYKVAKELIKTLGYTEEDEGHHHHHH,soluble
18,MGSDKIHHHHHHMATGSNIRTYFQGSWHEGDAPIIRAADHGAWLGSGVFDGARYFDGMAPDLEAHCARVNRSAEALMLTPTVSTQDMVEIVREGLKAYGPDQAVYIRPMYWGIDGDPTAIIPQADSTGFAVCLEEIPMAPATASATLTTTRFRRPVLEDAVVNAKAGCLYPNNARMLREARSKGFTNALVADALGNVAETATANIFMVKDGEVFTPIANGTFLAGITRARHIKNLRADGVPVHETVLSFADFHAADEVFMSGNMSKVTPVTALDDTQYQIGPIARRARALYWDWAKSTA,not soluble
19,GSHMERPESELIRQSWRVVSRSPLEHGTVLFARLFALEPSLLPLFQYNGRQFSSPEDSLSSPEFLDHIRKVMLVIDAAVTNVEDLSSLEEYLTSLGRKHRAVGVRLSSFSTVGESLLYMLEKSLGPDFTPATRTAWSRLYGAVVQAMSRGWDGE,soluble
20,MTTAFFVAADWLAEHIDDPEIQILDARMAPPGQEHRDMAGEYRAGHIPGALFFDIEALSDRASPLPHMMPRPEAFAVAMRELGVRQDKHLVIYDEGNLFSAPRAWWMLRTFGAEKVSILAGGLAGWQRDEWLLREGEEAHEGGEFEAKFAPQAVVRLTDVLLASHEKTAQIVDARPAARFNAQADEPRPGLRRGHIPGALNVPWTELVYEGELKTTDELNEVFFSHGVSFDRPIIASCGSGVTAAVVVLALATLDVPDVTLYDGAWSEWGARTDLPVEPA,not soluble
